Molecular target: CAX^CK31 (Ca2+/H+ antiporter of Caulobacter sp. K31), purified, lacking tags (Caulobacter sp. K31)
Assay: SEC-MALS

stoichiometry N: 2
Substance: CAX^CK31 (Ca2+/H+ antiporter of Caulobacter sp. K31), purified, lacking tags (natural protein)
